Reference: paper PMC10397247

Columns and labels:
P2-AA = molecular target: T1, P2-AA; experiment: two-hybrid library CCmax; conditions: mean of both orientations;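 note: natural log of median RNA to DNA barcode read ratio; higher means stronger binding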
T1 chain: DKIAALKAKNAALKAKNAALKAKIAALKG

P2-AA-1HGe-H = molecular target: T2, P2-AA-1HGe-H; experiment: two-hybrid library CCmax; conditions: mean of both orientations;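 note: natural log of median RNA to DNA barcode read ratio; higher means stronger binding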
T2 chain: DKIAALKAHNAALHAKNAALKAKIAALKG

P2-AA-1HGe-Q = molecular target: T3, P2-AA-1HGe-Q; experiment: two-hybrid library CCmax; conditions: mean of both orientations;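 note: natural log of median RNA to DNA barcode read ratio; higher means stronger binding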
T3 chain: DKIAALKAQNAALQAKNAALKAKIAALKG

P2-AA-1HGe-D = molecular target: T4, P2-AA-1HGe-D; experiment: two-hybrid library CCmax; conditions: mean of both orientations;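 note: natural log of median RNA to DNA barcode read ratio; higher means stronger binding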
T4 chain: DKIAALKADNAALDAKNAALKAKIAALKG

P2-AA-1HGe-A = molecular target: T5, P2-AA-1HGe-A; experiment: two-hybrid library CCmax; conditions: mean of both orientations;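 note: natural log of median RNA to DNA barcode read ratio; higher means stronger binding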
T5 chain: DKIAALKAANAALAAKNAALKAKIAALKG

P2-AA-1HGe-T = molecular target: T6, P2-AA-1HGe-T; experiment: two-hybrid library CCmax; conditions: mean of both orientations;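 note: natural log of median RNA to DNA barcode read ratio; higher means stronger binding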
T6 chain: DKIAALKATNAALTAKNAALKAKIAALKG

P2-AA-1HGe-M = molecular target: T7, P2-AA-1HGe-M; experiment: two-hybrid library CCmax; conditions: mean of both orientations
T7 chain: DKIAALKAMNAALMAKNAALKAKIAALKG

4H932-bN = molecular target: T8, 4H932-bN; experiment: two-hybrid library CCNG1
T8 chain: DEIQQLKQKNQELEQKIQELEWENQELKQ

4H850-bH = molecular target: T9, 4H850-bH; experiment: two-hybrid library CCNG1
T9 chain: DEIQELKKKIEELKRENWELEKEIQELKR

4H584-bH = molecular target: T10, 4H584-bH; experiment: two-hybrid library CCNG1
T10 chain: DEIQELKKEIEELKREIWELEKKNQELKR

4H3974-bH = molecular target: T11, 4H3974-bH; experiment: two-hybrid library CCNG1
T11 chain: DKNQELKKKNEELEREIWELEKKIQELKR

4H3414-bH = molecular target: T12, 4H3414-bH; experiment: two-hybrid library CCNG1
T12 chain: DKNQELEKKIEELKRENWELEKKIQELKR

4H1359-bH = molecular target: T13, 4H1359-bH; experiment: two-hybrid library CCNG1
T13 chain: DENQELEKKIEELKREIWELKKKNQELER

4H1710-bH = molecular target: T14, 4H1710-bH; experiment: two-hybrid library CCNG1
T14 chain: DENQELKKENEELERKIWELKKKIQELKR

4H3172-bH = molecular target: T15, 4H3172-bH; experiment: two-hybrid library CCNG1
T15 chain: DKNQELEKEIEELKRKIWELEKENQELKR

4H1629-bH = molecular target: T16, 4H1629-bH; experiment: two-hybrid library CCNG1
T16 chain: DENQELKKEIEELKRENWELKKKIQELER

4H619-bH = molecular target: T17, 4H619-bH; experiment: two-hybrid library CCNG1
T17 chain: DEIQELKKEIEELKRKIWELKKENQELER

4H1804-bH = molecular target: T18, 4H1804-bH; experiment: two-hybrid library CCNG1
T18 chain: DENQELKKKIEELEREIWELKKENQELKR

4H1449-bH = molecular target: T19, 4H1449-bH; experiment: two-hybrid library CCNG1
T19 chain: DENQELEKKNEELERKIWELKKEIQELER

4H3817-bH = molecular target: T20, 4H3817-bH; experiment: two-hybrid library CCNG1
T20 chain: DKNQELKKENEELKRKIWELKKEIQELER

4H570-bH = molecular target: T21, 4H570-bH; experiment: two-hybrid library CCNG1
T21 chain: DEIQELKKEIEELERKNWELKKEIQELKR

4H1393-bH = molecular target: T22, 4H1393-bH; experiment: two-hybrid library CCNG1
T22 chain: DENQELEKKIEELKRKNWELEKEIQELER

4H906-bH = molecular target: T23, 4H906-bH; experiment: two-hybrid library CCNG1
T23 chain: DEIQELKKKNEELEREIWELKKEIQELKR

4H3631-bH = molecular target: T24, 4H3631-bH; experiment: two-hybrid library CCNG1
T24 chain: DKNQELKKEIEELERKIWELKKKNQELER

4H3129-bH = molecular target: T25, 4H3129-bH; experiment: two-hybrid library CCNG1
T25 chain: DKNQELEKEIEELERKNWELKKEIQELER

4H3638-bH = molecular target: T26, 4H3638-bH; experiment: two-hybrid library CCNG1
T26 chain: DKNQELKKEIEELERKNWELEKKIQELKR

4H1985-bH = molecular target: T27, 4H1985-bH; experiment: two-hybrid library CCNG1
T27 chain: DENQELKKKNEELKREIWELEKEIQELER

B1: P1-AA-1HGe-H (peptide)
chain: DEIAALEAHNAALHAENAALEAEIAALEG
interaction score (P2-AA): 1.8
interaction score (P2-AA-1HGe-H): 1.57
interaction score (P2-AA-1HGe-Q): 2.16
interaction score (P2-AA-1HGe-D): 1.6
interaction score (P2-AA-1HGe-A): 2.34
interaction score (P2-AA-1HGe-T): 1.71
interaction score (P2-AA-1HGe-M): 1.8

B2: 4H1359-bH (peptide)
chain: DENQELEKKIEELKREIWELKKKNQELER
interaction score (4H932-bN): -1.75
interaction score (4H850-bH): -0.848
interaction score (4H584-bH): 0.303
interaction score (4H3974-bH): 0.477
interaction score (4H3414-bH): -0.291
interaction score (4H1359-bH): 0.989
interaction score (4H1710-bH): -0.389
interaction score (4H3172-bH): -0.46
interaction score (4H1629-bH): -0.6
interaction score (4H619-bH): -0.165
interaction score (4H1804-bH): 0.574
interaction score (4H1449-bH): 0.00778
interaction score (4H3817-bH): 0.0285
interaction score (4H570-bH): -1.09
interaction score (4H1393-bH): -0.756
interaction score (4H906-bH): 0.0222
interaction score (4H3631-bH): 0.884
interaction score (4H3129-bH): -0.249
interaction score (4H3638-bH): -0.989
interaction score (4H1985-bH): 0.67
